Data reported in patent publication US20030186258.

Biological target: fusion protein PNP20aa-hGH (UniProt P01241)
Sequence (P01241 27-217): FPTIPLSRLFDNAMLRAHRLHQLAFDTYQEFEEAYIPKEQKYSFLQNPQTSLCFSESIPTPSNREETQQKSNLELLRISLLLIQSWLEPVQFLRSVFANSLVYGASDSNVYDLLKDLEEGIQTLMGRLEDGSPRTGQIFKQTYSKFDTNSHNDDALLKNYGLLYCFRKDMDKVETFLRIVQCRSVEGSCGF

In the case of “ss-Kex1 protease immobilised on Eupergit C250L resin”, the “digestion of the fused protein (SDS-PAGE), 15 hours” value is reported as “almost complete: digestion is obtained after 15 hours”.
